Results from patent US20180030111A1.
Where two headings read alike, the source gives them in different places.

How the values were obtained:
[1] = biological target: FcgRIIIa receptor (CD16a) (human) (UniProt P08637); assay: cell-based or functional assay
[2] = biological target: FcgRIIIa receptor (CD16a) on human NK cells (human) (UniProt P08637); assay: cell-based or functional assay
[3] = biological target: C1q complement (rabbit serum as complement source) (rabbit); assay: cell-based or functional assay
[4] = biological target: FcgRIIIa receptor (CD16a) on human NK cells (human) (UniProt P08637); assay: cell-based or functional assay; remark: listed apart in the source
[5] = biological target: C1q complement (rabbit serum as complement source) (rabbit); assay: cell-based or functional assay; remark: listed apart in the source
[6] = biological target: C1q complement (rabbit serum as complement source) (rabbit); assay: cell-based or functional assay; remark: listed apart in the source
[7] = biological target: CD32aH (FcgRIIa receptor, H at position 131) (human) (UniProt P12318); assay: ELISA, purified IgG on coated receptor, ratio against wild-type
CD32aH (FcgRIIa receptor, H at position 131) (human), sequence (P12318 34-217): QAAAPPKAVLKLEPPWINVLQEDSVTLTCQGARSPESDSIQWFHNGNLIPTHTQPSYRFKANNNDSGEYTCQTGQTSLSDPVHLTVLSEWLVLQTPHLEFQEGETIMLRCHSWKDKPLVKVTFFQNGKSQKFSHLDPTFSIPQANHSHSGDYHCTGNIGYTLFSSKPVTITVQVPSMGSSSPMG

[8] = biological target: CD32aR (FcgRIIa receptor, R at position 131) (human) (UniProt P12318); assay: as above
[9] = biological target: CD32b (FcgRIIb receptor) (human) (UniProt P31994); assay: as above
CD32b (FcgRIIb receptor) (human), sequence (P31994 46-217): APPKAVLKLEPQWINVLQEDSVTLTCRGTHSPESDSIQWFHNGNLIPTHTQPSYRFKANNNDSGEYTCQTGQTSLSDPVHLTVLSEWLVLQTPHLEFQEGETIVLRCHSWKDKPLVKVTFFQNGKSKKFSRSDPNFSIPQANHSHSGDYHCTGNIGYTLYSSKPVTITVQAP

CD64 = CD64 (UniProt P12314); assay: as above
CD64, sequence (P12314 16-288 limits assumed): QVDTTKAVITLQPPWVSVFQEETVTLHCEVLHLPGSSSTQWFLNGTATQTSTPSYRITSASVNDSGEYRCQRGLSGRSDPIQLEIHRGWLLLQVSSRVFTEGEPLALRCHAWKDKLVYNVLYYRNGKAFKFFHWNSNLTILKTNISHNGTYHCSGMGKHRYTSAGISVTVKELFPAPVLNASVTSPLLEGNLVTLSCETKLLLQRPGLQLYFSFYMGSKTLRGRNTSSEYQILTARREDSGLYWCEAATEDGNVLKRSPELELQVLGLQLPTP

FcgRIIIa receptor (CD16a) on human NK cells (human), sequence (P08637 17-254): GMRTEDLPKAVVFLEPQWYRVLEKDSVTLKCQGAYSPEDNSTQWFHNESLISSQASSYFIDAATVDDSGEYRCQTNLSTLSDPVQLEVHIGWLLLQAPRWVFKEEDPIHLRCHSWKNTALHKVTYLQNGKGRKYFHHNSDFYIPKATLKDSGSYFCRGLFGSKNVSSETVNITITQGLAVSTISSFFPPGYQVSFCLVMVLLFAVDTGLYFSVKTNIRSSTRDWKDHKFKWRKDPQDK
FcgRIIIa receptor (CD16a) (human), sequence (P08637 17-254): as above

| ADCC EC50: Antibody concentration (ng/ml) giving 50% lysis of an internal control [1] | ADCC, Ratio [WT]/[antibody] [1] | ADCC, EC50: Antibody concentration (ng/ml) giving 50% maximum lysis of an internal control [2] | CDC, Antibody concentration (ng/ml) giving 50% lysis of an internal control [3] | CDC, Ratio [WT]/[antibody] [3] | ADCC, EC45: Antibody concentration (ng/ml) giving 45% maximum lysis of an internal control [4] | ADCC, EC50: Antibody concentration (ng/ml) giving 50% maximum lysis of an internal control [4] | ADCC, Ratio [WT]/[antibody] [4] | CDC, Antibody concentration (ng/ml) giving 50% lysis of an internal control [5] | CDC, Antibody concentration (ng/ml) giving 50% lysis of an internal control [6] | ADCC, Ratio [WT]/[antibody] [2] | CDC [3] | ADCC [4] | ELISA ratio (purified antibodies) [7] | ELISA ratio (purified antibodies) [8] | ELISA ratio (purified antibodies) [9] | ELISA ratio (purified antibodies) (CD64) | CDC, Ratio [WT]/[antibody] [5] | CDC, Ratio [WT]/[antibody] [6] | Substance |
| --- | --- | --- | --- | --- | --- | --- | --- | --- | --- | --- | --- | --- | --- | --- | --- | --- | --- | --- | --- |
|  |  | 0.57 ng/mL | 145 ng/mL |  |  |  |  |  |  |  | 3.2 |  |  |  |  |  |  |  | anti-CD20 IgG variant J3B-115 (T359A, S383R, V397M) (antibody) |
|  |  |  |  |  | 1 ng/mL |  | 1 |  | 106 ng/mL |  | 1.3 | 1 | 3.92 | 3.7 | 9 | 1.5 |  | 1.25 | anti-CD20 IgG variant N3A-87 (K290E, K320E, T350A, P396L) (antibody) |
|  |  |  |  |  | 0.2 ng/mL |  | 8 |  | 91 ng/mL |  | 1.5 | 8 | 4.02 | 3.3 | 4.5 | 1.2 |  | 1.46 | anti-CD20 IgG variant O3A-05 (K290E, T366A, A378V) (antibody) |
|  |  |  |  |  | 0.3 ng/mL |  | 5.33 |  | 61 ng/mL |  | 2.2 | 5.3 | 4.83 | 2.3 | 3.8 | 1.5 |  | 2.18 | anti-CD20 IgG variant Q3A-39 (N286I, P396L, N421T) (antibody) |

The remaining lines, values behind:

| Substance | ADCC EC50: Antibody concentration (ng/ml) giving 50% lysis of an internal control [1] | ADCC, Ratio [WT]/[antibody] [1] | ADCC, EC50: Antibody concentration (ng/ml) giving 50% maximum lysis of an internal control [2] | CDC, Antibody concentration (ng/ml) giving 50% lysis of an internal control [3] | CDC, Ratio [WT]/[antibody] [3] | ADCC, EC45: Antibody concentration (ng/ml) giving 45% maximum lysis of an internal control [4] | ADCC, EC50: Antibody concentration (ng/ml) giving 50% maximum lysis of an internal control [4] | ADCC, Ratio [WT]/[antibody] [4] | CDC, Antibody concentration (ng/ml) giving 50% lysis of an internal control [5] | CDC, Antibody concentration (ng/ml) giving 50% lysis of an internal control [6] | ADCC, Ratio [WT]/[antibody] [2] | CDC [3] | ADCC [4] | ELISA ratio (purified antibodies) [7] | ELISA ratio (purified antibodies) [8] | ELISA ratio (purified antibodies) [9] | ELISA ratio (purified antibodies) (CD64) | CDC, Ratio [WT]/[antibody] [5] | CDC, Ratio [WT]/[antibody] [6] |
| --- | --- | --- | --- | --- | --- | --- | --- | --- | --- | --- | --- | --- | --- | --- | --- | --- | --- | --- | --- |
| IgG-WT (antibody) | 12.3 ng/mL | 1 |  |  |  |  |  |  |  |  |  |  |  |  |  |  |  |  |  |
| anti-CD20 IgG1 with wild-type Fc (IgG-WT) (antibody) |  |  | 0.45 ng/mL | 262 ng/mL | 1 | 1.6 ng/mL | 10.5 ng/mL | 1 | 237 ng/mL | 133 ng/mL |  |  |  |  |  |  |  |  |  |
| anti-CD20 IgG variant A3A-31 (K334R, L410R) (antibody) |  |  | 1.84 ng/mL | 108 ng/mL | 2.42 |  |  |  |  |  | 0.24 |  |  |  |  |  |  |  |  |
| anti-CD20 IgG variant A3A-105 (G316D, K326E) (antibody) |  |  | 1.37 ng/mL |  |  |  |  |  |  |  |  |  |  |  |  |  |  |  |  |
| anti-CD20 IgG variant A3A-173 (K248E, K334R, A378V) (antibody) |  |  | 1.38 ng/mL | 16 ng/mL | 16.4 |  |  |  |  |  | 0.33 | 29.5 | 0.3 | 0.95 | 1.3 | 1.3 | 1.2 |  |  |
| anti-CD20 IgG variant K3B-01 (N315D, N361H, P396L) (antibody) |  |  |  |  |  |  | 0.69 ng/mL | 15.2 | 59.6 ng/mL |  |  | 4 | 15.2 | 5.7 | 1 | 1 | 2.3 | 3.97 |  |
| anti-CD20 IgG variant K3B-90 (V308A, K334R, A378V, K447N) (antibody) |  |  | 0.75 ng/mL | 23.1 ng/mL | 11.3 |  |  |  |  |  | 0.6 | 20.4 | 0.6 | 1.2 | 1.2 | 1.1 | 1.5 |  |  |
